Source: paper PMC3234751

Biological target: GFP-tagged IQGAP1 lacking IQ domains (IQGAPΔIQ) (UniProt P46940)
Assay: co-IP

Sequence of UniProt P46940 (P46940 whole entry, stated change not applied, the tested form may be a part): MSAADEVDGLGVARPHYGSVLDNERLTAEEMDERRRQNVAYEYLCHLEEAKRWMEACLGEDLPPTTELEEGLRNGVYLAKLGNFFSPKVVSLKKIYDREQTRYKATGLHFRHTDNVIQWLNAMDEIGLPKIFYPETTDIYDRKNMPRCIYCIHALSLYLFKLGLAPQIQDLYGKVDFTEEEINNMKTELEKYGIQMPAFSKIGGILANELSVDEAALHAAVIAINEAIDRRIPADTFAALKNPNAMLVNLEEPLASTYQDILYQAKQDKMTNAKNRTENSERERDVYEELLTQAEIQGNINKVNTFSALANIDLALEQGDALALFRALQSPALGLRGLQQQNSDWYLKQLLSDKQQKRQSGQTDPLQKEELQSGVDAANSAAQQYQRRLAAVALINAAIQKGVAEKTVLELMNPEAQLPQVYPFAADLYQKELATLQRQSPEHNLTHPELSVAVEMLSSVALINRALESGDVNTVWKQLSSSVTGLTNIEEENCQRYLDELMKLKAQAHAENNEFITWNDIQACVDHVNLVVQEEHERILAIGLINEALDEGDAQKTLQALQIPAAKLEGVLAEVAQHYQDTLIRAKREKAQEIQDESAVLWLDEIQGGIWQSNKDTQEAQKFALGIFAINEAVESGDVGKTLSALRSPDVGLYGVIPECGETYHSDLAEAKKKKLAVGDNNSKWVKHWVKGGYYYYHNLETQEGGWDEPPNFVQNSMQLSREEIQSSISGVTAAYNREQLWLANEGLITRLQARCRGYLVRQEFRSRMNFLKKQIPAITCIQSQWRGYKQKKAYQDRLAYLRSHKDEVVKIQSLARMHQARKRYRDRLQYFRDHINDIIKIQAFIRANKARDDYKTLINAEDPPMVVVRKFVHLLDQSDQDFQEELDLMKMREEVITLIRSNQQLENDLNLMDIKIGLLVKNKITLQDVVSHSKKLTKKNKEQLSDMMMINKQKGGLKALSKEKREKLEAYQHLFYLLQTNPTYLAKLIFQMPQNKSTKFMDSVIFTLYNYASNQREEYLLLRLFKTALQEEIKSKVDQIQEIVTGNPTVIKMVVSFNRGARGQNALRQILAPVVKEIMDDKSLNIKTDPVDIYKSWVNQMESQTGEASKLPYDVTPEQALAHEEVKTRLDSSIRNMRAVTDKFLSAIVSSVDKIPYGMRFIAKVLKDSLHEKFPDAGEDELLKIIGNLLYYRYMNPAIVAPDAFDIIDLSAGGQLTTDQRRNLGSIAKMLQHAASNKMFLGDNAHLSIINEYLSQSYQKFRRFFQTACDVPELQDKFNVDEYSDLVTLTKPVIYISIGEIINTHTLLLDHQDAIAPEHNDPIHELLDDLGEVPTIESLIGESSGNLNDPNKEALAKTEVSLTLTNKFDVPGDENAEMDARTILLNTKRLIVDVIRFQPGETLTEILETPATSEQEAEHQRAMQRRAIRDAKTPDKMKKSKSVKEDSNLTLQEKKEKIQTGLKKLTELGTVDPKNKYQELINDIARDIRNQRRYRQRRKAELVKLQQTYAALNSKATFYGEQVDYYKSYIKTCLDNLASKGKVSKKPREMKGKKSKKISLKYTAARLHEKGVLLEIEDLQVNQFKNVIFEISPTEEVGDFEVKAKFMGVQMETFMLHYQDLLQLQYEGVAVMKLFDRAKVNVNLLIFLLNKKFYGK

Question: How did the fold enhancement in binding (densitometry) turn out when “AKAP220, endogenous in COS cells (natural protein)” was run?
Answer: 3.6 fold
